In one experiment the target is ARPC4 (human) (UniProt P59998). Nature of the experiment: co-IP, anti-FLAG, lysate of cells with C-FLAG B3GNT2; mass spectrometry.
Another experiment has as its target CSE1L (human) (UniProt P55060). The experiment is described as above.
For the next experiment, the target named is DNAJC3 (human) (UniProt Q13217). Described as above.
For the next experiment, the target named is LSM12 (human) (UniProt Q3MHD2). Described as above.
A further experiment addresses T1, MOV10 (human) (UniProt Q9HCE1).
T1 sequence (looked up): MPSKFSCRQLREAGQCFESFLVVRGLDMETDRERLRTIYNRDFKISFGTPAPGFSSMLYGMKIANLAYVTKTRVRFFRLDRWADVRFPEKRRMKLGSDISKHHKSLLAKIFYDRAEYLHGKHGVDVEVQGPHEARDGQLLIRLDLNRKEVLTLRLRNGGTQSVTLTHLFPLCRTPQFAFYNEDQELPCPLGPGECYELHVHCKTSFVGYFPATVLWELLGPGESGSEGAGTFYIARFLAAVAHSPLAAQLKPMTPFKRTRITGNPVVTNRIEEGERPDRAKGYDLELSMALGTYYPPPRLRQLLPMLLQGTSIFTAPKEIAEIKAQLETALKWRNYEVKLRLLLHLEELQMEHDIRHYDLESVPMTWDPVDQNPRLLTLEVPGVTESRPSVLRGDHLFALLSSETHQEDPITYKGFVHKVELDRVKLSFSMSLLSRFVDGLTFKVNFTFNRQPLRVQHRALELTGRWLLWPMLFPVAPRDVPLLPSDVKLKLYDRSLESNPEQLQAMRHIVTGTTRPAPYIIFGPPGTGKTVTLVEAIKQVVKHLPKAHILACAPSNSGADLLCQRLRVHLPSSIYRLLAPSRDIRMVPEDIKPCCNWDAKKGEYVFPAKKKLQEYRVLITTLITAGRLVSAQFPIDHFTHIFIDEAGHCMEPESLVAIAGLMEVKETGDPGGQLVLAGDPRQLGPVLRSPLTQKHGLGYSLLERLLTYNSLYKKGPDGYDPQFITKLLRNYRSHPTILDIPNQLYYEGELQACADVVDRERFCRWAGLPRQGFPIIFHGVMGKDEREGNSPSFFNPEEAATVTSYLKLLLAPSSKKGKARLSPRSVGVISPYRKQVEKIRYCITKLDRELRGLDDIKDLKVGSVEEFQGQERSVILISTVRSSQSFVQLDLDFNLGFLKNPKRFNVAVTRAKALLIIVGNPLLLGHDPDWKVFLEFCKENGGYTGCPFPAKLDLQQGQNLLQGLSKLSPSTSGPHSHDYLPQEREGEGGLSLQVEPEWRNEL
The experiment is described as above.

The target of a further experiment is PARP1 (human) (UniProt P09874). Described as above.
In a further experiment the target is RPL10 (human) (UniProt P27635). Described as above.
Another experiment has as its target RPL13 (human) (UniProt P26373). Described as above.
For another experiment, the target named is CCT2 (human) (UniProt P78371). The experiment is described as follows: co-IP with control IgG, mass spectrometry; lysate of cells with C-FLAG B3GNT2.
A further experiment deals with CD70 (human) (UniProt P32970). Described as above.
In a further experiment the target is CTHRC1 (human) (UniProt Q96CG8). The experiment is described as above.
The target in another experiment is DNAJB11 (human) (UniProt Q9UBS4). Described as above.
Another experiment addresses EPRS (human) (UniProt P07814). Described as above.
The next experiment addresses GALNT2 (human) (UniProt Q10471). The description is as above.
A further experiment has as its target GANAB (human) (UniProt Q14697). The experiment is described as above.
The target of the next experiment is MSN (human) (UniProt P26038). The description is as above.
For a further experiment, the target named is MYO1C (human) (UniProt O00159). The experiment is described as above.
For the next experiment, the target named is PIGR (human) (UniProt P01833). Described as above.
Another experiment has as its target PJA2 (human) (UniProt O43164). Described as above.
The target in the next experiment is RARS (human) (UniProt P54136). The description is as above.
For a further experiment, the target named is RPL26 (human) (UniProt P61254). The experiment is described as above.
In the next experiment the target is RPL32 (human) (UniProt P62910). Described as above.
The next experiment deals with SDF4 (human) (UniProt Q9BRK5). Described as above.
The target of the next experiment is SLC25A5 (human) (UniProt P05141). Described as above.
For a further experiment, the target named is SPRR1A (human) (UniProt P35321). The experiment is described as above.
The next experiment concerns the target UGGT1 (human) (UniProt Q9NYU2). The description is as above.

Chain of MYO1C (human) (O00159 other isoform, or with tags, fused parts or gaps limits assumed): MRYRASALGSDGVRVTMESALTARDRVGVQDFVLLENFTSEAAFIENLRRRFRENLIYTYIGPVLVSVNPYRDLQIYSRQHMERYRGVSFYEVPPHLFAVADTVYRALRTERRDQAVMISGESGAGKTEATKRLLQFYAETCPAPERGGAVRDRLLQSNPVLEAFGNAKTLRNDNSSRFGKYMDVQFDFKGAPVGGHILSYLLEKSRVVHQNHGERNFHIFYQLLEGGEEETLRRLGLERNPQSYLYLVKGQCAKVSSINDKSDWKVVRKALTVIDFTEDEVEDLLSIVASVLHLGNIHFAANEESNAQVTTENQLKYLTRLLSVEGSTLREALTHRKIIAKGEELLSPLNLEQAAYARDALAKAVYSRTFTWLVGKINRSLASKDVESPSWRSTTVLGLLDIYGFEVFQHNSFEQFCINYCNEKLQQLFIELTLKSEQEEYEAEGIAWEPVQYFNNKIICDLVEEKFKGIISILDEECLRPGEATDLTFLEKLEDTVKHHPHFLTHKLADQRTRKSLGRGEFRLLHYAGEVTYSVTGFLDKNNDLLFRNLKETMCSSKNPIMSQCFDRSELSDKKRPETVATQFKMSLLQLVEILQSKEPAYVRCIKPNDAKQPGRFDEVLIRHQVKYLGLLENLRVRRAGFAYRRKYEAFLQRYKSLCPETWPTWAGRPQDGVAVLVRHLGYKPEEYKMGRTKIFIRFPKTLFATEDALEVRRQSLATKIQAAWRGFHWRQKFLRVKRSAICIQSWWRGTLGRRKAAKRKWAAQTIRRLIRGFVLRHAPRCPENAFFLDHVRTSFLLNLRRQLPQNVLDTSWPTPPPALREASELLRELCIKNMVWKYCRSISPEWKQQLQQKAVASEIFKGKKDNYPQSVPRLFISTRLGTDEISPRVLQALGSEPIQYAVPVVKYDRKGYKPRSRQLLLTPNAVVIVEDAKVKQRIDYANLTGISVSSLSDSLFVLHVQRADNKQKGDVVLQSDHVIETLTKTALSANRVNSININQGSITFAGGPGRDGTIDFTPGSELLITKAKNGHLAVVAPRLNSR
Chain of PARP1 (human) (P09874 2-1014 limits assumed): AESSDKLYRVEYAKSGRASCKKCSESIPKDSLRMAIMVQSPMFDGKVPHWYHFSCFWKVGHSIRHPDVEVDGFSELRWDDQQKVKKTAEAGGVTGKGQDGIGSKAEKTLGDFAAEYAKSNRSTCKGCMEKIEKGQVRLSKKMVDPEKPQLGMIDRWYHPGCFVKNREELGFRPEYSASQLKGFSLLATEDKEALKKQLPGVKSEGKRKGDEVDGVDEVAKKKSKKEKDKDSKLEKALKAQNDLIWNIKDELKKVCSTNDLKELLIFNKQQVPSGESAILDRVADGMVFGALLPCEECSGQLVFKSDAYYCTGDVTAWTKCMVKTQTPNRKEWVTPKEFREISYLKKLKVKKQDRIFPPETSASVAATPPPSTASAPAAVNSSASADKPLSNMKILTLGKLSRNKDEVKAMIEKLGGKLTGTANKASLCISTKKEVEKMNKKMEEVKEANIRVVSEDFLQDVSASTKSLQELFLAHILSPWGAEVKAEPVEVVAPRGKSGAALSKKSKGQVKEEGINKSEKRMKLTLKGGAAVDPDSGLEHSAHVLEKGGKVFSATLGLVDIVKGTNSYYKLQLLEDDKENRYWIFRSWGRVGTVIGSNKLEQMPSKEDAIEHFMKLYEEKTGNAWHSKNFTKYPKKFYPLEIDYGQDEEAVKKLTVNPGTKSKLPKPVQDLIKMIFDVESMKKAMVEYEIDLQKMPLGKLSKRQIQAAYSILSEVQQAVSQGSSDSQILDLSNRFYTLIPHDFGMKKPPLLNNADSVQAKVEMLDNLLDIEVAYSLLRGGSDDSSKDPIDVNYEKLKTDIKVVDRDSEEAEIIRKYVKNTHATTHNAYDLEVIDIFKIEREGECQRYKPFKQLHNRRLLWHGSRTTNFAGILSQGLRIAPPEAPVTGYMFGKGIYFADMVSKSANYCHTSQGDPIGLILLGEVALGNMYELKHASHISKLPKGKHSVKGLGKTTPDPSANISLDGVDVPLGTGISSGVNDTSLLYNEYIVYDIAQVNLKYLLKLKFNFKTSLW
Chain of CD70 (human) (P32970 whole entry): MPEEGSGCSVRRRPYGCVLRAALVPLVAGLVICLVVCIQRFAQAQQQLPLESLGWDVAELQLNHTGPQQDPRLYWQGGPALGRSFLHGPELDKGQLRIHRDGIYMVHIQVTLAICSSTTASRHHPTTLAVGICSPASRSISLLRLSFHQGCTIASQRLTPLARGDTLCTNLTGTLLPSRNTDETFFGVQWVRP
Chain of GALNT2 (human) (Q10471 whole entry): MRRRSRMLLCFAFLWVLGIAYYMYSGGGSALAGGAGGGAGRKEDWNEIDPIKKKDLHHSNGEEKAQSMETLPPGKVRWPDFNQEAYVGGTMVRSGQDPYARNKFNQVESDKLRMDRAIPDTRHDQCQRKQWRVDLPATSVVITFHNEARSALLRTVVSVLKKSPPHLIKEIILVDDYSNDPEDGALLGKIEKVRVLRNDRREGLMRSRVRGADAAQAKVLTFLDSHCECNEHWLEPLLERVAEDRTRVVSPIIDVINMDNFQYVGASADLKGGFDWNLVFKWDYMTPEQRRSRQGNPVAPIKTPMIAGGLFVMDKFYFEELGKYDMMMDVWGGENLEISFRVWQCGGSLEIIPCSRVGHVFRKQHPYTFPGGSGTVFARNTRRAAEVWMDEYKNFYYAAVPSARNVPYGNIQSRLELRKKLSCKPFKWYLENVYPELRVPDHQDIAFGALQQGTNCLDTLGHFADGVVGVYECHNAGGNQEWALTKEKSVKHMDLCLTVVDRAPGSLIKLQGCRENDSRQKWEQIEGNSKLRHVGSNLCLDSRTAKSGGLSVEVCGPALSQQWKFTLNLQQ
Chain of RARS (human) (P54136 whole entry): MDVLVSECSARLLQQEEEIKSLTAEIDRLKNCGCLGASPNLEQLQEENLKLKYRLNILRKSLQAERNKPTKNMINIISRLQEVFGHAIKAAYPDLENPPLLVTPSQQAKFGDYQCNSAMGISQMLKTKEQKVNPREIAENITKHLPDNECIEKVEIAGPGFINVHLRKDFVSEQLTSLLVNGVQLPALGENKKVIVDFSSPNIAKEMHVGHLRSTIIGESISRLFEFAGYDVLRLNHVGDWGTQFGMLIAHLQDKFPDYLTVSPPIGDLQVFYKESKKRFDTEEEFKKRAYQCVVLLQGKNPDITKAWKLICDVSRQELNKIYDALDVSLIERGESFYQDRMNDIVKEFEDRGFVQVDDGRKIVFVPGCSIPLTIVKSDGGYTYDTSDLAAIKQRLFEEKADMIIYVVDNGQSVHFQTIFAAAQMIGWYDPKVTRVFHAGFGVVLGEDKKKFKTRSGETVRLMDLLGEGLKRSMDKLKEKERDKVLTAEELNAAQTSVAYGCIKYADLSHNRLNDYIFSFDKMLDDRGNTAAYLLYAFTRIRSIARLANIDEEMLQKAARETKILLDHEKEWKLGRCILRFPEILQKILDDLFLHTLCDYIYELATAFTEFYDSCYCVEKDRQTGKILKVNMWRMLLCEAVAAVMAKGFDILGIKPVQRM
Chain of PIGR (human) (P01833 19-764 limits assumed): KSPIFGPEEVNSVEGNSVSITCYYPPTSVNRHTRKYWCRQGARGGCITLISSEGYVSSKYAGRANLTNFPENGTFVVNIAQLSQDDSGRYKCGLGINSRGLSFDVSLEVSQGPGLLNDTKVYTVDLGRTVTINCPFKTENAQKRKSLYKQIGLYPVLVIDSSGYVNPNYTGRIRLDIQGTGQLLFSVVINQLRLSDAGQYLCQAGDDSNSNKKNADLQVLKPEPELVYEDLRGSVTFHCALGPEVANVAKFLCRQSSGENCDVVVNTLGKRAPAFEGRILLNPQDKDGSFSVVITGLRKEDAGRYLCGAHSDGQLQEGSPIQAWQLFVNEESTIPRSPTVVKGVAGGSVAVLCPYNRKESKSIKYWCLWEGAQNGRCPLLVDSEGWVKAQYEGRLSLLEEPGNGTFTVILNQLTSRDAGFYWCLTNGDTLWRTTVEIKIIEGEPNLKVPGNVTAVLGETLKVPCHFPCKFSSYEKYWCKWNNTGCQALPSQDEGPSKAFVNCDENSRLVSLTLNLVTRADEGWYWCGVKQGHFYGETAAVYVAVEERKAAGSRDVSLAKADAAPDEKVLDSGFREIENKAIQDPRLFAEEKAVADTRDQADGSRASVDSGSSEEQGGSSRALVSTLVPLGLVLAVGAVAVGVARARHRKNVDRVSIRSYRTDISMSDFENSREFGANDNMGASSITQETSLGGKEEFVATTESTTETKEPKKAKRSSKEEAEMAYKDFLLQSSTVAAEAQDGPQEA
Chain of SLC25A5 (human) (P05141 2-298 limits assumed): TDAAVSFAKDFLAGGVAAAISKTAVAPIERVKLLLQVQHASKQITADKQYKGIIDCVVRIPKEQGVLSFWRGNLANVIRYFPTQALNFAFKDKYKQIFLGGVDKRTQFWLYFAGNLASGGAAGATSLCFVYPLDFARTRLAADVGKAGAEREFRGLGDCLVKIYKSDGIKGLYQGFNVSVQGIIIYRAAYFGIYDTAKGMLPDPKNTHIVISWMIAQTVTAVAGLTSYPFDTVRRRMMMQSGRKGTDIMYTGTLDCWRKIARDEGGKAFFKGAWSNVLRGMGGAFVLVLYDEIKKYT
Chain of DNAJC3 (human) (Q13217 32-504 limits assumed): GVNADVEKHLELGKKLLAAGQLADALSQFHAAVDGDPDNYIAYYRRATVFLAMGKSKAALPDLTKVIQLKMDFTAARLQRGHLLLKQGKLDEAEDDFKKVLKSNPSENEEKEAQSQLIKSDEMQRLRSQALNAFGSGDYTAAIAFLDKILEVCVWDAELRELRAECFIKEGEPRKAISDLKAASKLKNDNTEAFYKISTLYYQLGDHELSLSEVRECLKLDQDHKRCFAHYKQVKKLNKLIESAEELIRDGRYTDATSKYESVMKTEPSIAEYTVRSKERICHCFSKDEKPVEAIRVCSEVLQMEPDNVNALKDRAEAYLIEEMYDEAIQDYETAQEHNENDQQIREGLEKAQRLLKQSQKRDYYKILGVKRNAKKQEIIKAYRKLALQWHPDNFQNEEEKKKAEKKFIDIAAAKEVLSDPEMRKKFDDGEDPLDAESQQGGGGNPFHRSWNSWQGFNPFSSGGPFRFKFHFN

Take “C-terminal FLAG tagged B3GNT2 (from UniProt Q9NY97 1-397) (enzyme)”: the co-IP mass spectrometry count with ARPC4 (human) was found to be 3; with CSE1L (human), 3; with DNAJC3 (human), 3; with LSM12 (human) it was 4; with MOV10 (human) it was 3; with PARP1 (human), 3. Also, the co-IP mass spectrometry count worked out at 15 in the experiment with RPL10 (human) and 23 with RPL13 (human).

Regarding “IgG control (Millipore Sigma 12-371) (antibody)”, the co-IP mass spectrometry count with CCT2 (human), with CD70 (human), with CTHRC1 (human), with DNAJB11 (human), with EPRS (human) and with GALNT2 (human) was 0 in each case. Further, the co-IP mass spectrometry count in the experiment with GANAB (human), with MSN (human), in the experiment with MYO1C (human), in the experiment with PIGR (human), with PJA2 (human) and in the experiment with RARS (human) was 0 in each case. Moreover, the co-IP mass spectrometry count turned out to be 4 with RPL26 (human); 0 with RPL32 (human); 0 in the experiment with SDF4 (human); 3 in the experiment with SLC25A5 (human); 0 with SPRR1A (human); 0 with UGGT1 (human).

The values above are taken from patent publication US20240261333A1, “NOVEL TARGETS FOR ENHANCING ANTI-TUMOR IMMUNITY” (THE BROAD INSTITUTE, INC., priority 2021, published 2024).
